Data from PMC4440785, “Cytoplasmic Domain of MscS Interacts with Cell Division Protein FtsZ: A Possible Non-Channel Function of the Mechanosensitive Channel in Escherichia Coli” (PLoS ONE, 2015).

Experiments:
[1] = biological target: E. coli FtsZ, purified (GTP-polymerized in the assays) (E. coli) (UniProt P0A9A6); assay: co-sedimentation; co-sedimentation with GTP-polymerized FtsZ carried out similarly to Fig 2 panel A; data fitted with Hill model y = x^n/(Kd+x^n)
[2] = biological target: the molecule itself; assay: 90° angle light scattering; FtsZ (12 μM) alone or with MBP-ABDOM (12 μM) or MBP in 50 mM PIPES pH 6.0, 1 mM EDTA, 5 mM MgCl2, 30 °C; polymerization induced by 1 mM GTP

Molecule	Kd [1]	binding result [2]
MBP-ABDOM (ABDOM of MscS with N-terminally fused maltose binding protein) (from UniProt P0C0S1 175-265) (domain or fragment)	5.3 µM	–
MBP-ABDOM-K258A/R259A (from UniProt P0C0S1 175-265) (domain or fragment)	14.6 µM	–
E. coli FtsZ, purified (GTP-polymerized in the assays) (natural protein, UniProt P0A9A6 1-383, looked up, cell division protein FtsZ, E. coli, from pET11-ftsZ (gift of H. P. Erickson); also called polymerized FtsZ; assembled FtsZ; source: E. coli BL21(DE3) carrying pET11-FtsZ, purified by GTP-induced precipitation (four times)) MFEPMELTNDAVIKVIGVGGGGGNAVEHMVRERIEGVEFFAVNTDAQALRKTAVGQTIQIGSGITKGLGAGANPEVGRNAADEDRDALRAALEGADMVFIAAGMGGGTGTGAAPVVAEVAKDLGILTVAVVTKPFNFEGKKRMAFAEQGITELSKHVDSLITIPNDKLLKVLGRGISLLDAFGAANDVLKGAVQGIAELITRPGLMNVDFADVRTVMSEMGYAMMGSGVASGEDRAEEAAEMAISSPLLEDIDLSGARGVLVNITAGFDLRLDEFETVGNTIRAFASDNATVVIGTSLDPDMNDELRVTVVATGIGMDKRPEITLVTNKQVQQPVMDRYQQHGMAPLTQEQKPVAKVVNDNAPQTAKEPDYLDIPAFLRKQAD	–	binds
